Laboratory results as given in IntAct's records for PubMed 23706742.

Target: pk3cb_mouse Pik3cb (UniProt Q8BTI9)

Substance: Ras-related C3 botulinum toxin substrate 1 (Mus musculus) (from UniProt P63001) I33D
- effect of a mutation on the interaction: decreasing interaction strength
